B1: EHEE_rd3_0053 (parent)
chain: TYTFKVDNKDQAKKAAKWAKKLGLSFQIEKHGDTFKITVQ
B2: EEHEE_rd4_0647 (parent)
chain: MQVTWGNVTVTFSNPEEAKKYAEKVARKLGGQVELHNGQFRIK

Variants of: B1
Experiment: folding stability dG (cDNA display proteolysis); higher = more stable
Conditions: PBS, room temperature

Folding stability dG [kcal/mol], by site and new letter:
H31: F 2.55 | Q 2.65 | T 2.66 | S 2.45 | L 2.59 | V 2.87 | A 2.41 | E 2.93 | I 2.89 | C 3.09 | M 2.68 | K 2.14 | P 0.239 | G 1.34 | Y 2.45 | D 2.97 | W 2.41 | R 2.08 | N 2.42
F35: C 1.93 | H 0.715 | R 0.294 | I 1.85 | S -0.159 | Q 0.075 | N -0.413 | T 0.632 | Y 2.75 | M 1.31 | A 0.298 | W 2.75 | L 1.49 | K -0.99 | V 1.16 | G -0.794
T38: V 2.01 | K 1.65 | G 0.192 | Y 1.77 | Q 1.57 | W 1.76 | D 0.562 | L 1.78 | I 2.34 | S 1.81 | M 1.83 | E 1.1 | N 1.09 | A 1.3 | R 1.72 | H 1.8 | F 1.71
K30: N 1.88 | F 1.91 | V 2.21 | W 1.64 | R 2.5 | L 1.98 | G 1.57 | H 1.91 | T 2.04 | M 2.16 | P 2.09 | D 1.84 | Y 1.92 | A 2.21 | E 2.04 | S 2.03 | I 2.15 | Q 2.48
G32: V 1.19 | A 1.64 | L 1.7 | N 1.96 | H 1.61 | C 1.78 | T 0.996 | M 1.7 | S 1.31 | I 1.21 | F 1.65 | D 1.85 | P 0.72 | K 1.77 | W 1.31 | R 1.58 | E 2.03 | Y 1.59 | Q 1.76
S25: T 2.45 | Q 2.37 | G 1.89 | R 2.4 | H 2.29 | I 2.43 | N 2.36 | Y 2.18 | P 1.97 | V 2.42 | K 2.46 | W 2.38 | L 2.39 | M 2.29
K36: A 2.28 | V 3.14 | H 2.66 | E 2.45 | D 1.65 | W 3.32 | Q 2.66 | F 3.18 | M 2.94 | S 2.52 | T 2.88 | R 2.53 | I 3.28 | Y 3.17 | N 2.16 | L 3.18 | G 1
I37: W 0.115 | V 2.35 | Y 0.365 | A 0.507 | M 1.51 | L 1.47 | F 2.15
E29: W 2 | Y 1.95 | M 2.05 | F 1.95 | T 2.48 | K 2.07 | V 2.43 | H 2.01 | N 1.77 | G 1.19 | S 2.27 | Q 2.19 | A 2.06 | I 2.24 | R 2.11 | L 1.89 | C 2.64 | D 1.93
T34: Q 2.81 | I 2.68 | Y 2.92 | R 2.41 | S 2.61 | W 2.72 | A 2.64 | M 2.59 | F 2.79 | L 2.36 | G 3.12 | N 2.28 | P -0.409 | H 2.92 | K 2.65 | V 2.71 | D 1.89 | E 2.4
V39: H -0.097 | R -0.567 | Q -0.762 | Y 1.68 | T 0.975 | S -0.061 | I 2.82 | C 1.68 | G -0.471 | L 2.23 | F 2.06 | P -0.963 | D -0.839 | M 1.86 | N -0.981 | A 0.718 | W 1.56
D33: A 2.18 | P 2.12 | H 2.1 | G 2.23 | I 1.91 | S 2.33 | R 2.11 | M 2.1 | E 2.38 | T 2.37 | Y 1.8 | Q 2.16 | W 1.76 | N 2.45 | L 2.14 | K 2.35 | V 1.95 | F 2
Q40: N 2.4 | Y 3 | E 2.19 | L 2.41 | D 1.98 | R 2.59 | G 2.55 | I 2.49 | V 2.41 | P 1.14 | C 2.75 | W 3.28 | M 2.6 | A 2.46 | T 2.62 | S 2.77 | F 3.05 | H 2.56 | K 2.45
I28: L 1.84 | N -0.243 | V 2.23 | H 0.125 | Y 1.33 | F 1.47 | T 0.849 | S 1.26 | Q 0.977 | R 0.785 | A 1.42 | K 1.06 | W 1.53 | G -0.457 | M 2.15 | E 0.501
Q27: F 2.6 | R 2.61 | W 2.62 | I 2.67 | L 2.42 | Y 2.58 | H 2.52 | G 1.53 | V 2.62 | K 2.64 | E 2.22 | T 2.71 | C 2.84 | S 2.61 | D 1.9 | A 2.31 | M 2.54 | N 2.29
F26: W 1.88 | L 2.13 | Q -0.496 | C 2.68 | M 2.05 | G -0.311 | H 1.02 | P 0.848 | A 1.81 | Y 2.29 | N -0.442 | I 2.64 | V 2.54 | S 1.03 | T 1.34

Variants of: B2
Experiment: as above
Conditions: PBS, room temperature

Folding stability dG [kcal/mol] of substitutions, site by site:
V3: S 0.229 | R 0.122 | K 0.404 | W 0.9 | H 0.343 | L 1.35 | Q 0.078 | F 1.97 | M 1.05 | Y 0.842 | G 0.57 | D 0.045 | C 1.8 | I 1.61 | P 0.068 | N 0.227 | E 0.263 | T 0.641 | A 0.626
Q2: Y 2.23 | N 2.49 | S 3.04 | G 2.12 | T 3.09 | A 2.64 | F 2.16 | W 1.97 | H 2.3 | C 3.07 | V 2.86 | M 2.71 | L 2.55 | D 2.46 | I 2.82 | E 2.52 | K 2.94 | R 2.72 | P 1.45
T4: F 2.24 | K 2.58 | E 1.66 | D 0.672 | A 2.49 | I 2.97 | N 2.18 | L 2.6 | G 1.46 | H 2.54 | M 2.58
M1: V 3.11 | Q 2.03 | F 3.34 | G 1.95 | N 2.45 | E 1.3 | H 2.9 | W 3.72 | I 3.13 | P 2.09 | D 1.42 | K 2.27 | L 2.78 | Y 3.45 | R 2.57 | A 2.6 | C 3.6 | T 3.28 | S 2.61

Source: the MegaScale stability set (Tsuboyama et al. 2023)
